Molecular target: Flag-TSC2 (UniProt P49815)
Sequence (P49815 whole entry): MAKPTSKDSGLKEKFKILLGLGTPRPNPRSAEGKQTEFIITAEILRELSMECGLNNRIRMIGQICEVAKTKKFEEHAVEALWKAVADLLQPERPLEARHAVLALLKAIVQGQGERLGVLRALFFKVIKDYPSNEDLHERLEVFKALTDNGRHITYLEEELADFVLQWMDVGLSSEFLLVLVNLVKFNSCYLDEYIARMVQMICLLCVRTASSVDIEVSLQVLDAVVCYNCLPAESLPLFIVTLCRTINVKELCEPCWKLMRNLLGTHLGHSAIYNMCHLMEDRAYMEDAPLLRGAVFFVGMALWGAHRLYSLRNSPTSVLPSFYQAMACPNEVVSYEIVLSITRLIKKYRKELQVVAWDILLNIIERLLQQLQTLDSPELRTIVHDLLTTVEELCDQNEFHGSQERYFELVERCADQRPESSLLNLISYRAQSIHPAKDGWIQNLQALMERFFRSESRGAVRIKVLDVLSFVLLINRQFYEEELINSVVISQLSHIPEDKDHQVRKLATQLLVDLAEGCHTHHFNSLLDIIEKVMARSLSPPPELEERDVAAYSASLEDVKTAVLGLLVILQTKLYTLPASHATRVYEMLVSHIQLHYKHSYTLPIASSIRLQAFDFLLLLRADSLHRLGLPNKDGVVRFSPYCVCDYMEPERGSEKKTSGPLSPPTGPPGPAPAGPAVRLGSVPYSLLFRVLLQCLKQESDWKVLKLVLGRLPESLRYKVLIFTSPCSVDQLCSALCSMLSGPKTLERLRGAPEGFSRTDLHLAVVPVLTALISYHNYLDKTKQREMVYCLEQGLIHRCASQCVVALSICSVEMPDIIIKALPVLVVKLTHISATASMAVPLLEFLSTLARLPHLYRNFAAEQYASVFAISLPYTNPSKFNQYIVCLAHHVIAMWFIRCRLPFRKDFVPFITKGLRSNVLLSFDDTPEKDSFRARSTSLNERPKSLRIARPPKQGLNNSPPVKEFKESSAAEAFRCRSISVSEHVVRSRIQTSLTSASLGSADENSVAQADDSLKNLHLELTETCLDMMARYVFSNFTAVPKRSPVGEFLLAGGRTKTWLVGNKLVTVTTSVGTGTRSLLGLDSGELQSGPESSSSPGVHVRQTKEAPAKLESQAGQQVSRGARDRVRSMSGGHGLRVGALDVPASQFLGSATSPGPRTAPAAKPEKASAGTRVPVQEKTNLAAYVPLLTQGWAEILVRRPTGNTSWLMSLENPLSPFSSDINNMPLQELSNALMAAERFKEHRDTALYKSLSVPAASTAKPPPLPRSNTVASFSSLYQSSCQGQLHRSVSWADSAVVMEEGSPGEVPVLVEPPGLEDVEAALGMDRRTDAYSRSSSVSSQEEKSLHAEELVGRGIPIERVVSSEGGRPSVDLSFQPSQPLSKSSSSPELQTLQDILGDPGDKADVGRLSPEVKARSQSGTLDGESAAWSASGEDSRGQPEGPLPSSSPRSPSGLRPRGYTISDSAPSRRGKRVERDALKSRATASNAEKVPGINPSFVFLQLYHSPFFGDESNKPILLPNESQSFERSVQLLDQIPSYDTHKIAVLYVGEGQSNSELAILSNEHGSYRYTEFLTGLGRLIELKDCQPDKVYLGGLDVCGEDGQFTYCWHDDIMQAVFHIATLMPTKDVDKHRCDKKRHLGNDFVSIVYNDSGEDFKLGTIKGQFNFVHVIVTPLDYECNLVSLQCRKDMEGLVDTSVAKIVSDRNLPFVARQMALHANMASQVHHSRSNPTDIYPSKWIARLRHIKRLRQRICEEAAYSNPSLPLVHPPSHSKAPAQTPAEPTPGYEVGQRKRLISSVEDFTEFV

HA-SGK1 was tested, and the “phosphorylation of RXRXX(S/T) motifs on co-expression” value was “co-expression of SGK1 with TSC2 increased the phosphorylation of RXRXX(S/T) (SEQ ID NO: 1) motifs”.

Source: US20180147232
